For assay [1], the target named is mRFP-AtSfh1^E485P,Q534P nodulin (Arabidopsis thaliana). Nature of the assay: SEC. A general note: SEC sorts molecules by how far they enter the pores of the column.
The target of assay [2] is His-tagged AtSfh3 nodulin (soluble, recombinant) (Arabidopsis thaliana). Nature of the assay: SEC.
Assay [3] has as its target AtSfh8 nodulin (soluble, recombinant) (Arabidopsis thaliana). Nature of the assay: SEC.
Assay [4] has as its target myc-tagged AtSfh1 nodulin (Arabidopsis thaliana). Nature of the assay: SEC.
For assay [5], the target named is mRFP-AtSfh1 nodulin (WT) (Arabidopsis thaliana). The assay is described as follows: SEC.
Assay [6] has as its target His-tagged AtSfh1 nodulin (recombinant, solubilized in 8 M urea) (Arabidopsis thaliana). The assay is described as follows: SDS-PAGE.
Assay [7] deals with AtSfh5 nodulin (soluble, recombinant) (Arabidopsis thaliana). Nature of the assay: SEC.

Where “and” joins values, the source holds several entries; their conditions need not be identical. Equal values may be shown once.

Chain of His-tagged AtSfh1 nodulin (recombinant, solubilized in 8 M urea) (domain or fragment) (F4JLE5 whole entry, the tested form may be a part): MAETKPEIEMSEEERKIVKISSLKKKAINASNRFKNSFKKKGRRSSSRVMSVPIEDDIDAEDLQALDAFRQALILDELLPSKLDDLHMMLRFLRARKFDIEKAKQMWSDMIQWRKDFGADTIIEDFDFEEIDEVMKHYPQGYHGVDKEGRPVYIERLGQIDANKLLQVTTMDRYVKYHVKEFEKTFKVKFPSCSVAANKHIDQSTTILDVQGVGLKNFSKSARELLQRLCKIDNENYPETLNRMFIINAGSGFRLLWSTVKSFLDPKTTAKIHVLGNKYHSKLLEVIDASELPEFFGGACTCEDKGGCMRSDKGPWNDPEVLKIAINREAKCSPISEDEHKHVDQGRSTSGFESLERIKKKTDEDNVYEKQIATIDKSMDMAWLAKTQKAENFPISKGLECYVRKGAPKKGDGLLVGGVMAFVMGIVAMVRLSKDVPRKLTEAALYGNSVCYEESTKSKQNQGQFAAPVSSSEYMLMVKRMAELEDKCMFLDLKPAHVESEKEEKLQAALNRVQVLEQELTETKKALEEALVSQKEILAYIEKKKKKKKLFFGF
Chain of His-tagged AtSfh3 nodulin (soluble, recombinant) (domain or fragment) (Q93ZE9 whole entry, the tested form may be a part): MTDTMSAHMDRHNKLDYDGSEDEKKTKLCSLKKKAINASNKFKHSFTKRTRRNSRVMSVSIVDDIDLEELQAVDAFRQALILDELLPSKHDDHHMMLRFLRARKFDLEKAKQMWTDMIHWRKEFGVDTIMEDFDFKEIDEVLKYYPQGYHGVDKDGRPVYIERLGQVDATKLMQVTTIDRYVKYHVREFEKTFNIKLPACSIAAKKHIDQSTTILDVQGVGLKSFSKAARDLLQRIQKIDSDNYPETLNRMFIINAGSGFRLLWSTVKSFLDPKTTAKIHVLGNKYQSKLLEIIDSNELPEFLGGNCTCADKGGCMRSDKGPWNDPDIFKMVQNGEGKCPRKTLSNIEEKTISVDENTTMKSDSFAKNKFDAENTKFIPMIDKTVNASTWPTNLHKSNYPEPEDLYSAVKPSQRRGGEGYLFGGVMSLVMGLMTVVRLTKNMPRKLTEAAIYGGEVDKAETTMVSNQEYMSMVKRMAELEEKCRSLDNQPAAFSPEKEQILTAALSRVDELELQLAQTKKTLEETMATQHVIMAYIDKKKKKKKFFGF
Chain of AtSfh8 nodulin (soluble, recombinant) (domain or fragment) (F4IHJ0 whole entry, the tested form may be a part): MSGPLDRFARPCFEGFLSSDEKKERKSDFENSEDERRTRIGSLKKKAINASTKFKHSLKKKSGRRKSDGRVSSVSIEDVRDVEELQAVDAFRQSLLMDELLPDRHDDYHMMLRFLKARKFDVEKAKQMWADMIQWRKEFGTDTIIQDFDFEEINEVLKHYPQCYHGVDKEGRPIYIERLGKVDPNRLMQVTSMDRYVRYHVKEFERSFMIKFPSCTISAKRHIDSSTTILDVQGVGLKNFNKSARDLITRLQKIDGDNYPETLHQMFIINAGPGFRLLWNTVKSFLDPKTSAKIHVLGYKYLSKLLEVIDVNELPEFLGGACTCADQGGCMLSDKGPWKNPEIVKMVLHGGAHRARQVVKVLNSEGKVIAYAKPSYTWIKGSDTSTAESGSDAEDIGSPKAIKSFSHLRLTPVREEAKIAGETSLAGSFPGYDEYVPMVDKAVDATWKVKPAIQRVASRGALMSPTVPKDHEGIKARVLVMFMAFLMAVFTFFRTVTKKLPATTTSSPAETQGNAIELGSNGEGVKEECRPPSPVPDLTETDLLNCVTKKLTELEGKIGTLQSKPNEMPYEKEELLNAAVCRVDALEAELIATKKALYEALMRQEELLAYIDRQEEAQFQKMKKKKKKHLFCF
Chain of AtSfh5 nodulin (soluble, recombinant) (domain or fragment) (Q8GXC6 whole entry, the tested form may be a part): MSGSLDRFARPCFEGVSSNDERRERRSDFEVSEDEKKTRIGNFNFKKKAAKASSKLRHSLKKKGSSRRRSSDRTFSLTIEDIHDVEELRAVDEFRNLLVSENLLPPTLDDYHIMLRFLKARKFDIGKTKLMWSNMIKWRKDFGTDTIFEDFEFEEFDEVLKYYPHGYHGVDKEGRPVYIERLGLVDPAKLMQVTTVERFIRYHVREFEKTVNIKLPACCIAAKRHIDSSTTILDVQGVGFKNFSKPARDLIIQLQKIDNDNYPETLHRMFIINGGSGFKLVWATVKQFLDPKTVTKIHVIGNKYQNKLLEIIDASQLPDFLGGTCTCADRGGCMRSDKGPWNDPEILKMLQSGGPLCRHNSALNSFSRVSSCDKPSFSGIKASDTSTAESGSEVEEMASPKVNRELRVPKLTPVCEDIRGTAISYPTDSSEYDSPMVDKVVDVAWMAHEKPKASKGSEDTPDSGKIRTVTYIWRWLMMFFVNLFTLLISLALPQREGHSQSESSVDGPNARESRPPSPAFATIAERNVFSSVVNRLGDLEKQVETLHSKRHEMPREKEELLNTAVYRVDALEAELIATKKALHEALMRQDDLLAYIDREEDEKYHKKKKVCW

In the case of “mRFP-AtSfh1^E485P,Q534P nodulin (domain or fragment)”, the stoichiometry N (as a rule, the number of molecules, sites or subunits per partner or assembly) in assay [1] came to 2. On to “His-tagged AtSfh3 nodulin (soluble, recombinant) (domain or fragment)”, for which the stoichiometry N in assay [2] turned out to be 6. Regarding “AtSfh8 nodulin (soluble, recombinant) (domain or fragment)”, the stoichiometry N in assay [3] is 6. Regarding “myc-tagged AtSfh1 nodulin (domain or fragment)”, in assay [4], the stoichiometry N is 6 and 8.

“mRFP-AtSfh1 nodulin (WT) (domain or fragment)” gave a stoichiometry N in assay [5] of 4. In the case of “His-tagged AtSfh1 nodulin (recombinant, solubilized in 8 M urea) (domain or fragment)”, the stoichiometry N in assay [6] was found to be 8.

For the substance “AtSfh5 nodulin (soluble, recombinant) (domain or fragment)”, the stoichiometry N in assay [7] stood at 6.

Values taken from article PMC4436786.
